The results in this text go back to patent US20240277845A1 (XYPHOS BIOSCIENCES, published 2024).

T1: ULBP2-Fc (UniProt Q9BZM5 26-217)
T1 construct: Bought reagent; also called Ligand-Fc fusion (R&D Systems); not shown: Fc of the bought fusion, not described
T1 sequence (looked up): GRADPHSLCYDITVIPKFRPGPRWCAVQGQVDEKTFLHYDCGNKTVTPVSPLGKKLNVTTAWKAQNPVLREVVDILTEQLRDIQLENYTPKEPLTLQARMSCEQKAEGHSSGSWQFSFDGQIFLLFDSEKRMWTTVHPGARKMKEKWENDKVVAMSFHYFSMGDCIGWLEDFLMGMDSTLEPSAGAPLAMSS

T2: ULBP3-Fc (UniProt Q9BZM4 30-217)
T2 construct: Bought reagent; also called Ligand-Fc fusion (R&D Systems); not shown: Fc of the bought fusion, not described
T2 sequence (looked up): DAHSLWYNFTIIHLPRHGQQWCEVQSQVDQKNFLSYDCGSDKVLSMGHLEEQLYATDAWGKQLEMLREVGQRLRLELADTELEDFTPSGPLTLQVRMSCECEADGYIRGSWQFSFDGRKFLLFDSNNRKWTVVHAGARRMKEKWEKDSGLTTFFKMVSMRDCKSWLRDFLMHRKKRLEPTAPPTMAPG

T3: MICB-Fc (UniProt Q29980 23-298, limits assumed)
T3 construct: Bought reagent; also called Ligand-Fc fusion (R&D Systems); not shown: Fc of the bought fusion, not described
T3 sequence (looked up): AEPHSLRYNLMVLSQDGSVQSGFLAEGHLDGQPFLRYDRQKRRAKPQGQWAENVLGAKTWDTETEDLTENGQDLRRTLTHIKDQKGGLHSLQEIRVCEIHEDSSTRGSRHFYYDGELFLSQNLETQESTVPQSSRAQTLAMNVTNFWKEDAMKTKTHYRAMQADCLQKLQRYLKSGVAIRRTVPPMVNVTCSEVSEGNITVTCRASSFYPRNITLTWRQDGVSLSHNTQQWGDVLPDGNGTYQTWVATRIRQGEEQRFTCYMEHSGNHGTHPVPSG

T4: ULBP1-Fc (UniProt Q9BZM6 26-216)
T4 construct: Bought reagent; also called Ligand-Fc fusion (R&D Systems); not shown: Fc of the bought fusion, not described
T4 sequence (looked up): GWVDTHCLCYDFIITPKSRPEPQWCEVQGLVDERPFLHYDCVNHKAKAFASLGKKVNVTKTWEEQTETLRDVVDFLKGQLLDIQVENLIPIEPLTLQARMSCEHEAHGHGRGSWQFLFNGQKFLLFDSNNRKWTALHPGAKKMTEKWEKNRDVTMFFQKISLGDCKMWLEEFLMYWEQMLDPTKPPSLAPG

T5: ULBP4-Fc (UniProt Q8TD07 31-225, limits assumed)
T5 construct: Bought reagent; also called Ligand-Fc fusion (R&D Systems); not shown: Fc of the bought fusion, not described
T5 sequence (looked up): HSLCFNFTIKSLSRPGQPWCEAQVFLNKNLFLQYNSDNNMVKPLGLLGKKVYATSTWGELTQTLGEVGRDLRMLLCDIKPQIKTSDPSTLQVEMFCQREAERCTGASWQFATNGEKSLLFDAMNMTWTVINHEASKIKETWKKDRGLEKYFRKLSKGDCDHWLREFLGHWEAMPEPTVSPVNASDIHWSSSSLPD

T6: mouse NKG2D (mouse, UniProt O54709 94-232, limits assumed)
T6 construct: also called mouse wild-type NKG2D
T6 sequence (looked up): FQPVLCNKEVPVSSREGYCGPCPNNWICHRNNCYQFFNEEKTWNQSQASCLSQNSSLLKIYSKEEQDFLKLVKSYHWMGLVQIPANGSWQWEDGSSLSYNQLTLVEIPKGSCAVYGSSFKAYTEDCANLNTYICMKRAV

T7: Fc-wtNKG2D (human, UniProt P26718 78-216)
T7 construct: range 78-216; NKG2D ectodomain fused to the C-terminus of human IgG1 Fc; dimeric secreted protein; biotinylated in some ELISAs; also called wild-type NKG2D; Fc-NKG2D
T7 sequence: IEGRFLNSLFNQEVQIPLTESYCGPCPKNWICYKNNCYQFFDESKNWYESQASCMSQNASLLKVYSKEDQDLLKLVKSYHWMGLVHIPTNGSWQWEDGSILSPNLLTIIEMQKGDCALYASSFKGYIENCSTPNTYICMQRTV

B1: Fc-iNKG2D.YA (Fc fusion, human, not shown: a dimerising Fc or GST)
chain: T7 sequence with Y79A
notes: range 78-216; also called Y152A mutant
B2: Rituximab.LC-U2S3 MicAbody (bispecific antibody, human IgG1, kappa, N297A)
heavy: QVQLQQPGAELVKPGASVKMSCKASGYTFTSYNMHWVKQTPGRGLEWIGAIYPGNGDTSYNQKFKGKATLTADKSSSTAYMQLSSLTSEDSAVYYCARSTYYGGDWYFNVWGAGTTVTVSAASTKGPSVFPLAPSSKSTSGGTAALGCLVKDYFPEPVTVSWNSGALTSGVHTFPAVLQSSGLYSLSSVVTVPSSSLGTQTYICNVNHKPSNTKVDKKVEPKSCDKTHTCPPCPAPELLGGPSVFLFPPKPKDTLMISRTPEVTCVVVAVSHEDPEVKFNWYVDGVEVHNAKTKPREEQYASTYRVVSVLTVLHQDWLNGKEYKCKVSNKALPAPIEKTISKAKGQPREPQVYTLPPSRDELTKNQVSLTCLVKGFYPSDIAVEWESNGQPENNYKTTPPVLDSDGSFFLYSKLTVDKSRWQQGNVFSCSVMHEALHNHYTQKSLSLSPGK
light: QIVLSQSPAILSASPGEKVTMTCRASSSVSYIHWFQQKPGSSPKPWIYATSNLASGVPVRFSGSGSGTSYSLTISRVEAEDAATYYCQQWTSNPPTFGGGTKLEIKRTVAAPSVFIFPPSDEQLKSGTASVVCLLNNFYPREAKVQWKVDNALQSGNSQESVTEQDSKDSTYSLSSTLTLSKADYEKHKVYACEVTHQGLSSPVTKSFNRGECAPTSSSGGGGSEPHSLSYDITVIPKFRPGPRWCAVQGQVDEKTFLHYDCGNKTVTPVSPLGKKLNVTTAWKAQNPVLREVVDILTEQLWDIQLENYTPKEPLTLQARMSCEQKAEGHSSGSWQFSFDGQIFLLFDSEKRMWTTVHPGARKMKEKWENDKVVATKLYLWSMGDCIGWLEDFLMGMDSTLEPS
notes: also called Rit-S3; Rit.S3
B3: Rituximab light-chain fusion of U2S3 (NQ) (bispecific antibody)
heavy: QVQLQQPGAELVKPGASVKMSCKASGYTFTSYNMHWVKQTPGRGLEWIGAIYPGNGDTSYNQKFKGKATLTADKSSSTAYMQLSSLTSEDSAVYYCARSTYYGGDWYFNVWGAGTTVTVSAA
light: B2 light with N264Q, N278Q
notes: also called Rit.NQ; Rit.S3.NQ; not shown: human IgG1 heavy-chain constant region, ADCC-deficient
B4: Rituximab antibody (ADCC-deficient) (antibody, V domains shown)
VH: QVQLQQPGAELVKPGASVKMSCKASGYTFTSYNMHWVKQTPGRGLEWIGAIYPGNGDTSYNQKFKGKATLTADKSSSTAYMQLSSLTSEDSAVYYCARSTYYGGDWYFNVWGAGTTVTVSA
VL: QIVLSQSPAILSASPGEKVTMTCRASSSVSYIHWFQQKPGSSPKPWIYATSNLASGVPVRFSGSGSGTSYSLTISRVEAEDAATYYCQQWTSNPPTFGGGTKLEIK
notes: also called parent rituximab antibody; Rit.P; not shown: human IgG1 heavy-chain constant region, ADCC-deficient
B5: His-tagged monomeric U2S3 (ligand)
chain: EPHSLSYDITVIPKFRPGPRWCAVQGQVDEKTFLHYDCGNKTVTPVSPLGKKLNVTTAWKAQNPVLREVVDILTEQLWDIQLENYTPKEPLTLQARMSCEQKAEGHSSGSWQFSFDGQIFLLFDSEKRMWTTVHPGARKMKEKWENDKVVATKLYLWSMGDCIGWLEDFLMGMDSTLEPHHHHHH
notes: also called orthogonal U2S3 ligand

Residue numbers refer to the chain shown, from its start. Names may count otherwise.

Assay [1] addresses T8, MICA-Fc (UniProt Q29983 24-308).
T8 construct: Bought reagent; also called Ligand-Fc fusion (R&D Systems); not shown: Fc of the bought fusion, not described
As to the kind of experiment: ELISA; ligand-Fc coated, biotinylated Fc-iNKG2D.YA titrated, streptavidin-HRP; x axis printed as 'nM ligand-Fc'. For orientation: An ELISA detects its analyte on a solid surface through an enzyme-linked reagent.

For assay [2], the target named is T1, ULBP2-Fc. Described as above.
The target in assay [3] is T2, ULBP3-Fc. The assay is described as above.
Assay [4] addresses T3, MICB-Fc. Described as above.
Assay [5] deals with T4, ULBP1-Fc. The assay is described as above.
Assay [6] has as its target T5, ULBP4-Fc. Described as above.
The target in assay [7] is B1. Put plainly: ELISA; 'iNKG2D.YA capture; CD20(Rit)-MicAb titration; anti-kappa-HRP detection'.
The target in assay [8] is B1. As to the kind of experiment: ELISA; wells coated with Fc-iNKG2D.YA, Rituximab.LC-U2S3 titrated.
For assay [9], the target named is T6, mouse NKG2D. Put plainly: ELISA on mouse NKG2D, MicAbody titrated; y axis 'Mouse NKG2D binding' (absorbance).
Assay [10] addresses B1. Put plainly: Octet BLI; Fc-iNKG2D.YA captured on AHC tips, two-fold dilution series of MicAbody from 50 nM. As for the experimental part: (§1) YA were captured with anti-human IgG Fc capture (AHC) biosensor tips then associated with a two-fold dilution series of MicAbody starting at 50 nM. The y-axes corresponding to binding responses were set to the same scale for all sensograms.
For orientation: BLI is a label-free optical method that tracks binding on a fibre tip over time.

For assay [11], the target named is T7, Fc-wtNKG2D. Put plainly: ELISA on wild-type NKG2D (FIG. 19); ELISA on wild-type NKG2D (FIG. 19), Rituximab light-chain fusion.
Assay [12] concerns the target B1. Put plainly: Octet BLI; Fc-iNKG2D.YA captured on AHC tips, two-fold dilution series from 50 nM. The method, then: as §1
The target of assay [13] is T7, Fc-wtNKG2D. Put plainly: Octet BLI; Fc-wtNKG2D captured on AHC tips, two-fold dilution series from 50 nM. As for the experimental part:
as §1

Assay [14] deals with T7, Fc-wtNKG2D. Put plainly: Octet BLI; Fc-wtNKG2D captured on AHC tips, dilution series of His-tagged monomeric ligand.
For assay [15], the target named is B1. Put plainly: Octet BLI; Fc-iNKG2D.YA captured on AHC tips, dilution series of His-tagged monomeric ligand.
In assay [16] the target is B1. Put plainly: Octet BLI, Fc-iNKG2D.YA on AHC tips, His-tagged monomer (FIG. 4C).

T8 sequence (Q29983 24-308 limits assumed): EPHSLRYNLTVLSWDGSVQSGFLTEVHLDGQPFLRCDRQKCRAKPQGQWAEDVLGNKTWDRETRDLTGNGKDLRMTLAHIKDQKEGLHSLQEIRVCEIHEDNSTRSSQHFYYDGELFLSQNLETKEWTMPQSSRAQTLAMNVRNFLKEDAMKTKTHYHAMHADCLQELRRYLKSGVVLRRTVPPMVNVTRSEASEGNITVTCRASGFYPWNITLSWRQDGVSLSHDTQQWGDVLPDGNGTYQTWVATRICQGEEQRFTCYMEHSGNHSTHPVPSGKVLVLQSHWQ

With B1, the binding result in [1], in assay [2], in [3], in assay [4], in [5] and in assay [6] was “no binding (tested: about 2000 nM)” in each case.
With B2, the EC50 (read off the curve) (as a rule, the concentration giving half of the maximal effect) in assay [7] is ~0.06 nM; in assay [8], ~0.03 nM; in [9], ~40 nM. Binding in assay [10] was put at a Kd of 0.01 nM.
With B3, the “EC50 (read off the curve)” value in assay [7] is ~0.04 nM. The binding result in [11] is listed as “no binding”.
On to B4, for which the binding result in [12] and in [13] was “no binding (tested: 50 nM)” throughout.
Regarding B5, the binding result in assay [14] is “no binding (tested: not printed on the sheet)”. Besides, in assay [15], binding was put at a Kd of 28 nM. The “fold higher affinity than wild-type ULBP2 to wtNKG2D” value in [16] was determined as 10 fold.
